Results as given in the supplement of paper PMC10899765.

How the values were obtained:
Details in all cases: 20 nM; 72 h
[1] = test system: MCF10A; assay: 5+ nucleoli phenotype percent effect (relative to siNT 0% and siKIF11 100%); higher = more cells with five or more nucleoli
Experimental: (§1)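 After 72 h, cells were fixed and stained with Hoechst and anti-fibrillarin, and nucleoli per nucleus were counted with CellProfiler. Values are plate-adjusted percent effect for the one-nucleolus and 5+ nucleoli phenotypes, normalised to siNT (0%) and to the positive controls siNOL11 or siKIF11 (100%), as the mean of biological triplicates. Percent viability is the nuclei count relative to siNT.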

[2] = test system: MCF10A; assay: percent viability (nuclei count relative to siNT); higher = more viable cells
Experimental: as §1

[3] = test system: MCF10A; assay: one-nucleolus phenotype percent effect (relative to siNT 0% and siNOL11 100%); higher = more cells with one nucleolus (ribosome biogenesis inhibition)
Experimental: as §1

Sequence | 5+ nucleoli phenotype percent effect [1] [%] | percent viability [2] [%] | one-nucleolus phenotype percent effect [3] [%]
GAGCUUGGAUGAGCUGGGCUGA [hsa-miR-4538] | -29.6 | 25.3 | 14.4
GAGCUUGGUCUGUAGCGGUU [hsa-miR-4453] | -29.1 | 9.97 | 33.6
GAGCUUUUGGCCCGGGUUAUAC [hsa-miR-208a-5p] | 45.1 | 216 | -31
GAGGAAACUGAAGCUGAGAGGG [hsa-miR-4496] | 40.4 | 88.3 | -13.7
GAGGCAGAAGCAGGAUGACA [hsa-miR-1910-3p] | -17.5 | 38.6 | 25.3
GAGGCUGAAGGAAGAUGG [hsa-miR-4419b] | -30.7 | 58.3 | 21.1
GAGGCUGAGCUGAGGAG [hsa-miR-4478] | -17.6 | 22.9 | 35.1
GAGGCUGAUGUGAGUAGACCACU [hsa-miR-3929] | -13.8 | 30.5 | 14.1
GAGGGCAGAGCCAGCUUCCUGA [hsa-miR-7843-5p] | 13.7 | 32.5 | 16.5
GAGGGCAGCGUGGGUGUGGCGGA [hsa-miR-4632-5p] | 13.1 | 64.3 | 0.575
GAGGGUCUUGGGAGGGAUGUGAC [hsa-miR-1182] | 44.5 | 104 | -20.9
GAGGGUUGGGUGGAGGCUCUCC [hsa-miR-296-3p] | 9.3 | 57.1 | 20.8
GAGGUUUGGGGAGGAUUUGCU [hsa-miR-4748] | -23.1 | 24.1 | 39.1
GAGGUUUUCUGGGUUUCUGUUUC [hsa-miR-329-5p] | 17.3 | 56 | -9.91
GAGUGCCUUCUUUUGGAGCGUU [hsa-miR-515-3p] | 9.82 | 50.3 | -6.31
GAGUGGAUAGGGGAGUGUGUGGA [hsa-miR-6849-5p] | 31 | 126 | -18.4
GAGUGGGGCUUCGACCCUAACC [hsa-miR-1296-3p] | -0.672 | 62.8 | 8.1
GAGUGUAGUUCUGAGCAGAGC [hsa-miR-4280] | -17.9 | 29.9 | 18.3
GAGUUCUACAGUCAGAC [hsa-miR-3168] | -12.9 | 22.3 | -2.63
GAUAUCAGCUCAGUAGGCACCG [hsa-miR-3074-3p] | 2.53 | 25.1 | -9.52

Sequence | 5+ nucleoli phenotype percent effect [1] [%] | percent viability [2] [%] | one-nucleolus phenotype percent effect [3] [%]
GAUAUUCAGAGGCUAGGUGG [hsa-miR-6074] | -1.31 | 34.5 | -6.04
GAUCCAUCUCUGCCUGUAUUGGC [hsa-miR-7151-5p] | -8.39 | 80.6 | 5.88
GAUCCCUUUAUCUGUCCUCUAG [hsa-miR-6866-3p] | 77.6 | 112 | -33.5
GAUCUCACUUUGUUGCCCAGG [hsa-miR-1285-5p] | 15.8 | 43.4 | -20.8
GAUGAGCUCAUUGUAAUAUGAG [hsa-miR-556-5p] | 8.79 | 111 | -2.48
GAUGAUGAUGGCAGCAAAUUCUGAAA [hsa-miR-1272] | 4.28 | 76.8 | 8.72
GAUGAUGCUGCUGAUGCUG [hsa-miR-1322] | -20.7 | 41.1 | 24.5
GAUGCGCCGCCCACUGCCCCGCGC [hsa-miR-4787-3p] | 33.1 | 76.2 | -16.2
GAUGGUUGACCAGAGAGCACAC [hsa-miR-758-5p] | 60.1 | 56.6 | -21.1
GAUUGAGACUAGUAGGGCUAGGC [hsa-miR-4461] | -3.16 | 31.4 | 3.4
GAUUUCAGUGGAGUGAAGUUC [hsa-miR-205-3p] | 51.7 | 133 | -30.2
GCAAAGCACACGGCCUGCAGAGA [hsa-miR-330-3p] | 16.5 | 83.2 | -7.99
GCACCCAGGCAAGGAUUCUG [hsa-miR-500b-3p] | -15.3 | 76.8 | 11.8
GCAGAGAACAAAGGACUCAGU [hsa-miR-3919] | -14.9 | 23.3 | 38.7
GCAGAGUGCAAACAAUUUUGAC [hsa-miR-759] | 51.1 | 90.2 | -27.2
GCAGAUCAGGACUGUAACUCACC [hsa-miR-1288-5p] | 31.1 | 48.5 | -14.5
GCAGCAGAGAAUAGGACUACGUC [hsa-miR-922] | 9.43 | 108 | -15
GCAGCAGGGUGAAACUGACACA [hsa-miR-761] | 9.29 | 56.9 | 4.85
GCAGCAUUCAUGUCCC [hsa-miR-4310] | 17.2 | 62.6 | -11
GCAGCCCAGCUGAGGCCUCUG [hsa-miR-4690-3p] | 21.1 | 119 | -17.1

Sequence | 5+ nucleoli phenotype percent effect [1] [%] | percent viability [2] [%] | one-nucleolus phenotype percent effect [3] [%]
GCAGGAACUUGUGAGUCUCCU [hsa-miR-873-5p] | 31.2 | 122 | -17.4
GCAGGACAGGCAGAAGUGGAU [hsa-miR-4436a] | 32.1 | 105 | -24.9
GCAGGCACAGACAGCCCUGGC [hsa-miR-4269] | -29 | 30.1 | 43.1
GCAGGGACAGCAAAGGGGUGC [hsa-miR-211-3p] | -20.9 | 38.3 | 9.24
GCAGGUGCUCACUUGUCCUCCU [hsa-miR-764] | -23.5 | 23.9 | 49.3
GCAGUAGUGUAGAGAUUGGUUU [hsa-miR-3129-5p] | 12.6 | 40.7 | -15
GCAGUCCAUGGGCAUAUACAC [hsa-miR-455-3p] | 26.8 | 112 | -12.4
GCAGUGGCUCUGAAAUGAACUC [hsa-miR-5693] | -12.8 | 33.8 | -3.8
GCAGUUCUGAGCACAGUACAC [hsa-miR-4277] | 31.2 | 210 | -25
GCAUGUGAUGAAGCAAAUCAGU [hsa-miR-3607-5p] | -8.33 | 52.8 | -2.14
GCAUUGUGCAGGGCUAUCA [hsa-miR-4289] | 7.06 | 35 | -8.06
GCCCAAAGGUGAAUUUUUUGGG [hsa-miR-186-3p] | 26.4 | 176 | -20.2
GCCCAGGACUUUGUGCGGGGUG [hsa-miR-6840-3p] | 16.2 | 117 | -16.9
GCCCCGGCGCGGGCGGGUUCUGG [hsa-miR-4707-5p] | 42.2 | 116 | -25
GCCCCGGGCAGUGUGAUCAUC [hsa-miR-5587-3p] | 18.8 | 108 | -20.5
GCCCCUGGGCCUAUCCUAGAA [hsa-miR-331-3p] | 8.19 | 61.2 | 6.3
GCCCGAGAGGAUCCGUCCCUGC [hsa-miR-4740-3p] | 17.8 | 65.9 | -18.2
GCCCGCGUGUGGAGCCAGGUGU [hsa-miR-1471] | 49.2 | 97.1 | -18.2
GCCCUCCGCCCGUGCACCCCG [hsa-miR-1470] | 45.2 | 113 | -19.6
GCCCUCUGUCACCUUGCAGACG [hsa-miR-2276-5p] | 60.2 | 103 | -20.8
